This is an account of results in patent US8273855.

Experiment in all cases: cell-based or functional assay
Test [1] has as its target Notch1 of mouse neural stem cells (NSCs) (mouse) (UniProt Q01705).
Test [2] has as its target myc-tagged full-length mouse Notch1 on transfected OLN cells (mouse) (UniProt Q01705).
In test [3] the target is Notch on primary rat oligodendrocytes and oligodendrocyte precursor cells (rat) (UniProt Q07008).
Notch on primary rat oligodendrocytes and oligodendrocyte precursor cells (rat), sequence (Q07008 19-2531): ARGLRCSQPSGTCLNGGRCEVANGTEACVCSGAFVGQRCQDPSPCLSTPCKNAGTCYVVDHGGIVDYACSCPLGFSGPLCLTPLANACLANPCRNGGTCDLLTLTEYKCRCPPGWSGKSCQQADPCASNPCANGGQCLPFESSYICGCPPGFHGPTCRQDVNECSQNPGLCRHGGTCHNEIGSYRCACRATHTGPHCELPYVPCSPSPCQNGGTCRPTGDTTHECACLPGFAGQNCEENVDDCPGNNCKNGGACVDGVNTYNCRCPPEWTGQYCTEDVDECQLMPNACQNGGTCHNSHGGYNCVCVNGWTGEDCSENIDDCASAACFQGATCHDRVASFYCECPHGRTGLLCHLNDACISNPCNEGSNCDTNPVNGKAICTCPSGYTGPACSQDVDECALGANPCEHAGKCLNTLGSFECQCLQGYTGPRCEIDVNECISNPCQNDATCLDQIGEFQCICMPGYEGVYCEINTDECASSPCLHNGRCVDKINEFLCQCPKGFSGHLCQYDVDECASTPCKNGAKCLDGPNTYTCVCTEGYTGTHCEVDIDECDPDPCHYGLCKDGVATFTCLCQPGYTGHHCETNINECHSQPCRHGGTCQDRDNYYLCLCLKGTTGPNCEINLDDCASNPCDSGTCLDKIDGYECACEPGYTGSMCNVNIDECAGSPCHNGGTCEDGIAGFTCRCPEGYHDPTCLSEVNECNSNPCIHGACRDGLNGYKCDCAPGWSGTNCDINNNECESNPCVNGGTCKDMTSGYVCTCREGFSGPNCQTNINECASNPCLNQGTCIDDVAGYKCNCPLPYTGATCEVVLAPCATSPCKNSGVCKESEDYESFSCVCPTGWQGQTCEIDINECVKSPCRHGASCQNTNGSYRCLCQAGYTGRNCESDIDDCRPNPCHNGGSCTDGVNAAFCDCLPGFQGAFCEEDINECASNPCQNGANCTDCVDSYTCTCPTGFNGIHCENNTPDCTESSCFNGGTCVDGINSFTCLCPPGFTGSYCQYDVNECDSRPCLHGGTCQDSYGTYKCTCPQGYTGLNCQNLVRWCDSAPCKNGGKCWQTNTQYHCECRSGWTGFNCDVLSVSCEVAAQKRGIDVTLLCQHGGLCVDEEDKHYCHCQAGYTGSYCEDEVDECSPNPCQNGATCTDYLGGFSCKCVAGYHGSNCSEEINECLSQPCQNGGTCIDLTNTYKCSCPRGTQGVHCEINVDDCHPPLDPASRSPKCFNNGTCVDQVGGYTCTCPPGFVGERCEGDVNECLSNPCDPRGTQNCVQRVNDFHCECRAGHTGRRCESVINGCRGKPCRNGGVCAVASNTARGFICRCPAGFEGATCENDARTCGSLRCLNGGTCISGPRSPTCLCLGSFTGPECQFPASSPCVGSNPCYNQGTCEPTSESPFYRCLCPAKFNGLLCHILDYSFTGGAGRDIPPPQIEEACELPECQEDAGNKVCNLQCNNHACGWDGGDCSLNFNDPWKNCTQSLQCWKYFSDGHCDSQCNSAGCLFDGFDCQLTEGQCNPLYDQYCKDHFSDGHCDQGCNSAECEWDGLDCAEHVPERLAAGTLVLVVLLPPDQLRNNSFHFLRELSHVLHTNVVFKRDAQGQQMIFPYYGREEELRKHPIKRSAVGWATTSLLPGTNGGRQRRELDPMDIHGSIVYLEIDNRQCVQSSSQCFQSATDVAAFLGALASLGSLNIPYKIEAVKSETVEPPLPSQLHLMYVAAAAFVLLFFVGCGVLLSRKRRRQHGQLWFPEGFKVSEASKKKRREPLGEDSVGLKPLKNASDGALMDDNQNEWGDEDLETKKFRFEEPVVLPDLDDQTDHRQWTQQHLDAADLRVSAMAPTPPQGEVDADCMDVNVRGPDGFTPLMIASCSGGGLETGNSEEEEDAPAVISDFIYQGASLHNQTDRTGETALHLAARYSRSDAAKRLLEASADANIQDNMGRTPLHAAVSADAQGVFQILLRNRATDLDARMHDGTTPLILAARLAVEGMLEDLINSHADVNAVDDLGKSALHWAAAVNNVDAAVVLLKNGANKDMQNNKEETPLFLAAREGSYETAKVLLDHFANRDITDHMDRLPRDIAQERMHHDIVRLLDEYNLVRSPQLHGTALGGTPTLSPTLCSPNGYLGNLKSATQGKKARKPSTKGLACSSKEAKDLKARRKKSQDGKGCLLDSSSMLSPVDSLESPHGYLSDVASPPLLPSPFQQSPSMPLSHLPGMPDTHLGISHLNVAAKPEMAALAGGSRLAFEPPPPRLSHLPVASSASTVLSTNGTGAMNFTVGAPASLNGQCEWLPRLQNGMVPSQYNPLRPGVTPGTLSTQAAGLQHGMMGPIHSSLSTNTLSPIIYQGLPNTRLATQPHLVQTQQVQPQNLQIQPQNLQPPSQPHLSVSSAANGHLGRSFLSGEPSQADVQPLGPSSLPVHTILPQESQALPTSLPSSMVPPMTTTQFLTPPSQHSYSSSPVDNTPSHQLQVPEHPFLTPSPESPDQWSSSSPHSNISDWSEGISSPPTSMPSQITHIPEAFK

Notch1 of mouse neural stem cells (NSCs) (mouse), sequence (Q01705 19-2531 limits assumed): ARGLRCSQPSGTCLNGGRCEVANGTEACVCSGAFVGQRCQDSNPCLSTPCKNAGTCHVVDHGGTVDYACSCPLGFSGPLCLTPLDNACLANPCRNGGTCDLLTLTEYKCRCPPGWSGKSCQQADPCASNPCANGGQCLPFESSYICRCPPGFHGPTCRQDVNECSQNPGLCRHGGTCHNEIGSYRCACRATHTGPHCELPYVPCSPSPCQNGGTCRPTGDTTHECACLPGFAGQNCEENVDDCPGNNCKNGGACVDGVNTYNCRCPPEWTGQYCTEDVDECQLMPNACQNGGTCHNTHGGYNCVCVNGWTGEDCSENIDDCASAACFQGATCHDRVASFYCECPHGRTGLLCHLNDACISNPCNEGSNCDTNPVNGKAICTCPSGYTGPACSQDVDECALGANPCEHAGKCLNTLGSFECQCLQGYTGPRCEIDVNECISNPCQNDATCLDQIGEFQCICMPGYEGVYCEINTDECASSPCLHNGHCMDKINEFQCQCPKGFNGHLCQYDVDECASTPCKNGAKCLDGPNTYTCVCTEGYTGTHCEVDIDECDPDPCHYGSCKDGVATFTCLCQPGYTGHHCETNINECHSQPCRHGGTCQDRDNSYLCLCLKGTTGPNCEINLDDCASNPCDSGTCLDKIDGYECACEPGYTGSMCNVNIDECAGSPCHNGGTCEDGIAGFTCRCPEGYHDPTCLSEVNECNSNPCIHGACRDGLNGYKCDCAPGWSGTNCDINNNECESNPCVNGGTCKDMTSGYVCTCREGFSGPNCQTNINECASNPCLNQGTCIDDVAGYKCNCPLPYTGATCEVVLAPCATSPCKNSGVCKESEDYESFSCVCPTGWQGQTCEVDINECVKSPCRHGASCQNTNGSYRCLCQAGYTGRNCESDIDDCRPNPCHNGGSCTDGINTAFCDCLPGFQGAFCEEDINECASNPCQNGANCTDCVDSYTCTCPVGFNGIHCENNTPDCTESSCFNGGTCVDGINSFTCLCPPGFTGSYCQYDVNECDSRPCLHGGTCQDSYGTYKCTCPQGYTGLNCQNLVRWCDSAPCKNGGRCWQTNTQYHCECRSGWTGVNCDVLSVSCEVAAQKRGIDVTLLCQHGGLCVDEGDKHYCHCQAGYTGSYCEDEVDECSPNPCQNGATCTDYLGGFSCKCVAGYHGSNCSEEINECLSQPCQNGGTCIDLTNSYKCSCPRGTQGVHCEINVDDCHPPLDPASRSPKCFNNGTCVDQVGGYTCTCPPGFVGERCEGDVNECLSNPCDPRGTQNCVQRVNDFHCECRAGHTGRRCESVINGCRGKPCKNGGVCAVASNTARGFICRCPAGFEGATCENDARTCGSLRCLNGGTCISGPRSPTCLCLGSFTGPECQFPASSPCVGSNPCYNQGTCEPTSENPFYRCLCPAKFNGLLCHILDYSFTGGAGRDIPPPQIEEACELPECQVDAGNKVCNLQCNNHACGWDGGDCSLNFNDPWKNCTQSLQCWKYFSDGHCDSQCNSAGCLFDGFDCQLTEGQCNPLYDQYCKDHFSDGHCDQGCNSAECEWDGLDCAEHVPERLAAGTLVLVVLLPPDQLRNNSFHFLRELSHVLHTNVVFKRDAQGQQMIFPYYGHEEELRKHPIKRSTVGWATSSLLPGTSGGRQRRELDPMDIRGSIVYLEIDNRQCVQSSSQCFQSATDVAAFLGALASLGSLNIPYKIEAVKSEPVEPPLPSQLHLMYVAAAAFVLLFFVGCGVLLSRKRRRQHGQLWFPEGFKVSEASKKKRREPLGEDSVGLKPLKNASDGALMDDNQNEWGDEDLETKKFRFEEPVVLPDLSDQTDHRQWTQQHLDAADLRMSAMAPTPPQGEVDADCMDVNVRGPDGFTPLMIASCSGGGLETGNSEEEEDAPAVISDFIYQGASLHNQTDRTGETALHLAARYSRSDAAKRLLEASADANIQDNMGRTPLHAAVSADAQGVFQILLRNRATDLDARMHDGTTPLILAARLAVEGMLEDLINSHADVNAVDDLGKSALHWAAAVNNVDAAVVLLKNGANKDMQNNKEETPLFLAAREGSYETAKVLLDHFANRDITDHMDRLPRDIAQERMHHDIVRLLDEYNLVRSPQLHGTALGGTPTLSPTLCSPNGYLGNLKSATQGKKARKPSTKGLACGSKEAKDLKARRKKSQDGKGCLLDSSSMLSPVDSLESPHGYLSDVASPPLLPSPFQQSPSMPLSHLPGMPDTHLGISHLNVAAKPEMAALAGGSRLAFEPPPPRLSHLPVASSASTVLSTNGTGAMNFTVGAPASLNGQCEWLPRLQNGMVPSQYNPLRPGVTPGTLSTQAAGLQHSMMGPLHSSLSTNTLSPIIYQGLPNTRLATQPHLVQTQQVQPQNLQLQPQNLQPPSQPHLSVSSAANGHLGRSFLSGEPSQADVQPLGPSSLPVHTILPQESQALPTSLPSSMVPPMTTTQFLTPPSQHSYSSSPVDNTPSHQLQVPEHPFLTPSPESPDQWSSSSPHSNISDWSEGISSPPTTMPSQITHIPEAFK
myc-tagged full-length mouse Notch1 on transfected OLN cells (mouse), sequence (Q01705 19-2531): as the sequence (Q01705 19-2531 limits assumed) above

The substance “NB-3 (recombinant protein, as substrate or soluble; tag not stated at these places) (from UniProt P97528 20-999) (ligand)” displayed an OL generation from NSCs, flow cytometry in test [1] of 2 fold. For the same substance, the MAG staining intensity in test [2] stood at 2.5 fold. In test [3], the MAG transcripts, real-time PCR, primary OLs stood at 24 fold and the OPC differentiation into CNPase-positive OLs came to 75%.
